Consider three molecules from patent US20260176358A1 (JIANGSU HENGRUI PHARMACEUTICALS, published 2026).

For experiment [1], the target named is T1, PACAP38 (UniProt P18509 132-169, biotinylated in the ELISAs).
T1 peptide (looked up): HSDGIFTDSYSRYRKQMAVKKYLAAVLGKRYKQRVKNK
The experiment can be described thus: competition ELISA, biotinylated PACAP38 to coated PAC1-Fc. As to the method: (§1) The plates were incubated for 1 h and washed, and a horseradish peroxidase-labeled streptavidin secondary antibody was then added. After incubation, color development was performed.
A general note: In an ELISA, binding on a coated surface is turned into a signal by an enzyme label.

Experiment [2] addresses T1, PACAP38. The experiment can be described thus: cell-based or functional assay.
In experiment [3] the target is T1, PACAP38. The experiment can be described thus: competition ELISA, biotinylated PACAP38 to coated VPAC1-Fc. How it is done: as §1
Experiment [4] has as its target T2, VIP (UniProt P01282 125-152, biotinylated in the ELISA).
T2 construct: also called vasoactive intestinal peptide
T2 peptide (looked up): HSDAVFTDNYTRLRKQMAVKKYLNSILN
The experiment can be described thus: ELISA, biotinylated VIP on streptavidin plate. As to the method: (§2) In this test example, the abilities of the chimeric antibodies and humanized antibodies of C1 #, C9 #, C21 #, and C28 #to bind to human CGRP and rat CGRP were assessed using ELISAs. Plates were coated with […] human CGRP and rat CGRP, respectively, and blocked, and the antibodies, serially diluted, were then added. The plates were incubated for 1 h and washed, and a horseradish peroxidase-labeled anti-human Fc secondary antibody was then added. After incubation, color development was performed. […] The plates were incubated for 1 h and washed, and the antibodies, serially diluted, were then added. The plates were incubated for 1 h and washed, and a horseradish peroxidase-labeled streptavidin secondary antibody was then added. After incubation, color development was performed.

The target in experiment [5] is T1, PACAP38. The experiment can be described thus: ELISA, biotinylated peptide on streptavidin plate. How it is done:
as §2

Experiment [6] addresses T3, PACAP27 (UniProt P18509 132-158, biotinylated in the ELISAs).
T3 peptide (looked up): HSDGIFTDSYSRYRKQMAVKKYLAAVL
The experiment can be described thus: ELISA, biotinylated peptide on streptavidin plate. As to the method:
as §2

Experiment [7] deals with T1, PACAP38. The experiment can be described thus: competition ELISA, biotinylated PACAP38 to coated VPAC2-Fc. How it is done: as §1
Experiment [8] deals with T1, PACAP38. The experiment can be described thus: ELISA, antibody on coated anti-human Fc, biotinylated peptide. As to the method: (§3) Plates were coated with 1 μg/mL anti-human Fc and blocked, and the antibodies, serially diluted, were added. […] The plates were incubated for 1 h and washed, and a horseradish peroxidase-labeled streptavidin secondary antibody was then added. After incubation, color development was performed.

In experiment [9] the target is T3, PACAP27. The experiment is described as above. How it is done:
as §3

For experiment [10], the target named is T1, PACAP38. The experiment can be described thus: cell-based or functional assay.

Residue numbers refer to the chain shown, from its start. Where two headings read alike, the source gives them in different places.

B1: P14#-CHI (antibody, human IgG1, kappa, V domains shown)
VH: DVKLVESGGGLVKPGGSLKVSCAASGFAFNNYDMSWVRQTPEKRLDWVATITGGGSYTWYPDSVKGRFTISRDNARNTLFLQMSSLRSEDTALYYCARLNGYDQAGAMDYWGQGTSVTVSS
VL: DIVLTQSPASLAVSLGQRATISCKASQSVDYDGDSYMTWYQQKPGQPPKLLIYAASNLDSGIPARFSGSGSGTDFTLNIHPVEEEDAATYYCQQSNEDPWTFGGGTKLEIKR
notes: chimeric: murine variable regions fused to human constant regions; also called P14#-CH1
The IC50 is the concentration at which inhibition is half-maximal. Low readings indicate greater potency, high ones weaker potency. A word on the EC50: it is the concentration needed to bring the measured effect to its halfway point. High values mean lower potency in that assay, low ones higher potency in that assay. For B1, the IC50 came to 0.48 nM in [1], 0.27 nM in experiment [3] and 0.23 nM in experiment [7]. Further, the “IC50, inhibition of cAMP production in SH-SY5Y cells” value (“IC50, inhibition of cAMP production” below) in experiment [2] is 1.46 nM. Further, the binding result in [4] is “no binding”. Moreover, the values for the EC50 in experiment [5] and in experiment [6] were 0.09 nM and 0.14 nM, respectively.

B2: P14H1L2 (antibody, human IgG1, kappa, V domains shown)
VH: EVQLVESGGGLVKPGGSLRLSCAASGFAFNNYDMSWVRQAPGKGLEWVATITGGGSYTWYPDSVKGRFTISRDNAKNSLYLQMNSLRAEDTAVYYCARLTGYDQAGAMDYWGQGTTVTVSS
VL: DIVLTQSPDSLAVSLGERATINCKASQSVDYDGDSYMTWYQQKPGQPPKLLIYAASNLDSGIPDRFSGSGSGTDFTLTISSLQAEDVAVYYCQQSNEDPWTFGGGTKVEIKR
For the molecule B2, the IC50 worked out at 0.45 nM in [1], 0.19 nM in experiment [3] and 0.18 nM in experiment [7]. Moreover, in [2], the “IC50, inhibition of cAMP production” value stood at 2.37 nM. Besides, the binding result in experiment [4] is recorded as “no binding”. Further, the EC50 in experiment [5] is 0.09 nM; in experiment [6], 0.19 nM.

B3: P14H2L3 (antibody, human IgG1, kappa, V domains shown)
VH: B2 VH with K13Q
VL: B2 VL with N57H
B3: the IC50 in experiment [1] is 0.67 nM; in experiment [3], 0.58 nM; in experiment [7] it was 0.4 nM. The “IC50, inhibition of cAMP production” value in experiment [2] stood at 4.02 nM; in [10], 2.4 nM. Besides, the binding result in [4] was “no binding”. In addition, the EC50 was determined as 0.09 nM in [5], 0.2 nM in experiment [6], 0.13 nM in experiment [8] and 0.16 nM in experiment [9].
